Measurements from the supplement of paper PMC10724198.
“And” between values parts separate entries of the source, which are not always exact repeats. Identical values can stand only once. ± gives the standard deviation of the averaged measurements.
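Wherever protein stability index of tFT-peptide fusion (C-terminal peptide) is given: PSI is a weighted mean of sequencing reads over stability bins, variants kept only with over 10 reads, mCherry proximal and sfGFP distal, peptide attached via GGGS linker.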
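Wherever protein stability index of tFT-peptide fusion in deletion strain of DAS1 is given: PSI is a weighted mean of each variant's read distribution over the sorted stability bins, computed only for variants having over 10 reads in total.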
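Wherever protein stability index of tFT-peptide fusion in deletion strain of DOA10 is given: PSI per variant is the weighted mean of its sequencing read distribution over the sorted stability bins, counting only variants with over 10 reads summed across bins.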

The sequences below were run on Saccharomyces cerevisiae (assay: protein stability index of tFT-peptide fusion (C-terminal peptide) (PSI (0-1 scale)); higher = more stable (slower turnover)). Conditions: genetic background: cdc34-1; temperature: 37 C.
Method: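 MPS profiling in S. cerevisiae of the tFT-X12 degron library: putative degron peptides plus stable controls, 12 aa, fused to the C-terminus of a sfGFP-mCherry timer. Cells are FACS-sorted into 8 mCherry/sfGFP bins and deep-sequenced. PSI runs from 0 (unstable) to 1 (stable). Backgrounds are wild type, das1Δ and doa10Δ at 30 °C, and wild type, das1Δ, cdc34-1 and cdc53-1 at 37 °C; 2-3 technical replicates each.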
Sequence KKHKKGQKQKIN has a protein stability index of 0.535 ± 0.036.

Same assay, conditions: genetic background: cdc53-1; temperature: 37 C
Sequence KKHKKGQKQKIN has a protein stability index of 0.694 ± 0.011.

Same assay, conditions: genetic background: das1 deletion; temperature: 30 C
KKHKKGQKQKIN showed a protein stability index of 0.622 ± 0.04.

Same assay, conditions: genetic background: das1 deletion; temperature: 37 C
In the case of KKHKKGQKQKIN, the protein stability index is reported as 0.725 ± 0.021.

Same assay, conditions: genetic background: doa10 deletion; temperature: 30 C
In the case of KKHKKGQKQKIN, the protein stability index is reported as 0.0638 ± 0.032.

Same assay, conditions: genetic background: wild type; temperature: 30 C
KKHKKGQKQKIN was tested, and the protein stability index was 0.0729 ± 0.029.

Same assay, conditions: genetic background: wild type; temperature: 37 C
KKHKKGQKQKIN was tested, and the protein stability index was 0.149 ± 0.11.

Each sequence was assayed on Saccharomyces cerevisiae in the same assay as above. Conditions: genetic background: wild type; temperature: 30 C.
Sequence KKHKKGQKQKIN has a protein stability index of 0.175 ± 0.039.

Each sequence was assayed on Saccharomyces cerevisiae (assay: protein stability index of tFT-peptide fusion in deletion strain of DAS1 (PSI (0-1 scale)); higher = more stable (slower turnover)). Conditions: not given.
Method: (§1)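 MPS profiling in S. cerevisiae of two library types built from selected 12-aa C-degron peptides (IN1, IN2, LN1, LN3, VN2, R1-R5, W1-W3, Atg1 and Rpa12 C-termini): saturation mutagenesis libraries and C-terminal +1 capping libraries (13 aa). Each peptide is fused to the C-terminus of a sfGFP-mCherry timer, after a GGGS linker. Cells are FACS-sorted into 8 mCherry/sfGFP bins and sequenced. PSI runs from 0 (unstable) to 1 (stable), measured once in wild type and in the das1Δ or doa10Δ background.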
With KKHKKGQKQKIN the protein stability index was 0.66 and 0.611. For PDKRNQLIKLLN, the protein stability index was 0.633. Sequence PDKRYHLIKLLN has a protein stability index of 0.597. PDVRNHLIKLLN gave a protein stability index of 0.613. With PPKRNHLIKLLN the protein stability index was 0.581. PSLAAAFWRVVG was tested, and the protein stability index was 0.702. Work on PSLAADFWRVVG yielded a protein stability index of 0.712. PSLAAGFWRVVG gave a protein stability index of 0.678. For PSLAALFWRVVG, the protein stability index was 0.674. PSLAASCWRVVG was tested, and the protein stability index was 0.675. Work on PSLAASFWRGVG yielded a protein stability index of 0.707. PSLAASFWRRVG gave a protein stability index of 0.69. PSLAASFWRVDG was tested, and the protein stability index was 0.7. PSLAASFWRVNG gave a protein stability index of 0.702. For PSLAASFWRVVGF, the protein stability index was 0.693. In the case of PSLAASFWRVVGQ, the protein stability index is reported as 0.705. For PSLAASFWRVVGR, the protein stability index was 0.691. In the case of PSLAASFWRVVW, the protein stability index is reported as 0.683. With PSLAASGWRVVG the protein stability index was 0.679. Work on PSLAASMWRVVG yielded a protein stability index of 0.73. PSLAASTWRVVG showed a protein stability index of 0.68. PSLAGSFWRVVG was tested, and the protein stability index was 0.667. PSLAHSFWRVVG showed a protein stability index of 0.669. PSLAISFWRVVG gave a protein stability index of 0.633. PSMRWTFRYWVN showed a protein stability index of 0.571. Work on QDKRNHLIKLLN yielded a protein stability index of 0.592. In the case of QSLAASFWRVVG, the protein stability index is reported as 0.698. RAIQPLPVQFLN gave a protein stability index of 0.674. Sequence RIIQPLPVQFLN has a protein stability index of 0.598. RLIEPLPVQFLN was tested, and the protein stability index was 0.578. RLIPPLPVQFLN was tested, and the protein stability index was 0.576. RLIQPLLVQFLN was tested, and the protein stability index was 0.575. In the case of RLIQPLPAQFLN, the protein stability index is reported as 0.602. RLIQPLPHQFLN showed a protein stability index of 0.645. Sequence RLIQPLPNQFLN has a protein stability index of 0.703. RLIQPLPPQFLN showed a protein stability index of 0.521. RLIQPLPVAFLN gave a protein stability index of 0.552. RLIQPLPVQFLND showed a protein stability index of 0.671. Work on RLIQPLPVQFLNK yielded a protein stability index of 0.676. Work on RLIQPLPVQFLNM yielded a protein stability index of 0.655. In the case of RLIQPLPVQFLR, the protein stability index is reported as 0.58. RLIQPLPVQFLS gave a protein stability index of 0.606. With RLIQPLPVQHLN the protein stability index was 0.564. Sequence RLIQPLPWQFLN has a protein stability index of 0.699. Work on RLIQPRPVQFLN yielded a protein stability index of 0.613. With RLIQWLPVQFLN the protein stability index was 0.613. In the case of RLIWPLPVQFLN, the protein stability index is reported as 0.57. RRGAVGGWRLVG was tested, and the protein stability index was 0.687. RTIQPLPVQFLN was tested, and the protein stability index was 0.629. SDKRNHLIKLLN gave a protein stability index of 0.607. For SRGAVGGWRLVG, the protein stability index was 0.677. SRWRVGLWRGAS was tested, and the protein stability index was 0.672. With SSLAASFWRVVG the protein stability index was 0.692. TSMRWTFRYWVN showed a protein stability index of 0.696. Sequence VRGAKGGWRLVG has a protein stability index of 0.67. VRGANGGWRLVG was tested, and the protein stability index was 0.677. Sequence VRGAQGGWRLVG has a protein stability index of 0.701. Sequence VRGAVAGWRLVG has a protein stability index of 0.655. Work on VRGAVGGMRLVG yielded a protein stability index of 0.677. In the case of VRGAVGGWRCVG, the protein stability index is reported as 0.658. Sequence VRGAVGGWRFVG has a protein stability index of 0.674. Work on VRGAVGGWRHVG yielded a protein stability index of 0.691. VRGAVGGWRLFG was tested, and the protein stability index was 0.694. For VRGAVGGWRLTG, the protein stability index was 0.659. With VRGAVGGWRLVGM the protein stability index was 0.685. In the case of VRGAVGGWRLVGQ, the protein stability index is reported as 0.667. With VRGAVGGWRLVGS the protein stability index was 0.67. Work on VRGAVGGWRLVW yielded a protein stability index of 0.671. VRGAVGGWRNVG showed a protein stability index of 0.676. Sequence VRGAVGGYRLVG has a protein stability index of 0.681. In the case of VRGAVGIWRLVG, the protein stability index is reported as 0.681. Work on VRGAVMGWRLVG yielded a protein stability index of 0.71. Sequence VRGAVPGWRLVG has a protein stability index of 0.678. With VRGAVTGWRLVG the protein stability index was 0.684. Sequence VRGHVGGWRLVG has a protein stability index of 0.672. Sequence VRWAVGGWRLVG has a protein stability index of 0.685. For VSLAASFWRVVG, the protein stability index was 0.676. With VYGAVGGWRLVG the protein stability index was 0.677. With WTSCGYKFRTNN the protein stability index was 0.699. YKILRQKMNHQN gave a protein stability index of 0.668. YVVYLSCVACIN showed a protein stability index of 0.0254.

These sequences were tested on Saccharomyces cerevisiae (assay: protein stability index of tFT-peptide fusion in deletion strain of DOA10 (PSI (0-1 scale)); higher = more stable (slower turnover)). Conditions: not given.
Method: as §1
In the case of AIFLPMCPLLLR, the protein stability index is reported as 0.631. In the case of AIHLPMCPLLLR, the protein stability index is reported as 0.65. In the case of AITGPMCPLLLR, the protein stability index is reported as 0.666. In the case of AITKPMCPLLLR, the protein stability index is reported as 0.651. AITLGMCPLLLR was tested, and the protein stability index was 0.661. Work on AITLNMCPLLLR yielded a protein stability index of 0.662. AITLPMCPLFLR showed a protein stability index of 0.67. Work on AITLPMCPLLER yielded a protein stability index of 0.741. Sequence AITLPMCPLLLH has a protein stability index of 0.621. With AITLPMCPLLLN the protein stability index was 0.189. For AITLPMCPLLLRN, the protein stability index was 0.659. In the case of AITLPMCPYLLR, the protein stability index is reported as 0.675. For AITLPMCVLLLR, the protein stability index was 0.608. AITLPMCWLLLR was tested, and the protein stability index was 0.736. For AITLPQCPLLLR, the protein stability index was 0.661. With AITLPTCPLLLR the protein stability index was 0.681. In the case of AITLPYCPLLLR, the protein stability index is reported as 0.666. AITLQMCPLLLR showed a protein stability index of 0.619. Work on AITLWMCPLLLR yielded a protein stability index of 0.611. AITSPMCPLLLR gave a protein stability index of 0.672. With AIVLPMCPLLLR the protein stability index was 0.623. In the case of ALYMCSVGCWFR, the protein stability index is reported as 0.638. ANTLPMCPLLLR gave a protein stability index of 0.649. For CEVSLPILLFFR, the protein stability index was 0.635. Sequence CLPSLPILLFFR has a protein stability index of 0.632.
